Results taken from patent US6365126.

B1: Drosophila NF1 catalytic domain (amino acids 1,235-1,614) bacterial fusion protein (protein)
chain: TEFDTLAETVLADRFEQLVQLVTMISDKGELPIAMALANVVTTSQMDELARVLVTLFDAKHLLSPLLWNMFYREVEVSDCMQTLFRGNSLGSKIMAFCFKIYGASYLQMLLEPLIRPLLDEEEETCFEVDPARLDPTEDIEQHRNNLIALTQKVFDAIINSSDRFPPQLRSMCHCLYQVLSKRFPNLLQNNIGAVGTVIFLRFINPAIVSPQELGIVDKQVHSSAKRGLMLMSKILQNIANHVEFSKEQHMLCFNDFLRDHFEAGRRFFIQIASDCETVDQTSHSMSFISDANVLALHRLLWTHQEKIGDYLSSSRDHKAVGRRPFDKMATLLAYLGPPEHKPVDSHMMFSSYARWSSIDMSSTNFEEIMVKHQMHEKEE
B2: human p120GAP catalytic domain fusion protein (protein)
chain: MEKIMPEEEYSEFKELILQKELHVVYALSHVCGQDRTLLASILLRIFLHEKLESLLLCTLNDREISMEDEATTLFRATTLASTLMEQYMKATATQFVHHALKDSILKIMESKQSCELSPSKLEKNEDVNTNLTHLLNILSELVEKIFMASEILPPTLRYIYGCLQKSVQHKWPTNTTMRTRVVSGFVFLRLICPAILNPRMFNIISDSPSPIAARTLILVAKSVQNLANLVEFGAKEPYMEGVNPFIKSNKHRMIMFLDELGNVPELPDTTEHSRTDLSRDLAALHEICVAHSDELRTLSNERGAQQHVLKKLLAITELLQQKQNQYTKTNDVR

Target: H-Ras, P01112
Sequence (P01112 whole entry, looked up): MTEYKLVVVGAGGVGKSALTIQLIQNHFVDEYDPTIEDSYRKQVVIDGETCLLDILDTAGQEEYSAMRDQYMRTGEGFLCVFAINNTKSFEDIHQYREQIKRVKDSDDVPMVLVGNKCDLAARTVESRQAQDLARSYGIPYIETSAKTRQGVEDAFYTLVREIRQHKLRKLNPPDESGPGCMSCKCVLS

| Protein | GTPase activity of H-Ras (GAP assay) |
| --- | --- |
| B1 | All three fusion proteins stimulated the GTPase activity of H-Ras |
| B2 | All three fusion proteins stimulated the GTPase activity of H-Ras |
